Assay [1] concerns the target T1, human B7H4 (human, UniProt Q7Z7D3 25-282).
T1 sequence (looked up): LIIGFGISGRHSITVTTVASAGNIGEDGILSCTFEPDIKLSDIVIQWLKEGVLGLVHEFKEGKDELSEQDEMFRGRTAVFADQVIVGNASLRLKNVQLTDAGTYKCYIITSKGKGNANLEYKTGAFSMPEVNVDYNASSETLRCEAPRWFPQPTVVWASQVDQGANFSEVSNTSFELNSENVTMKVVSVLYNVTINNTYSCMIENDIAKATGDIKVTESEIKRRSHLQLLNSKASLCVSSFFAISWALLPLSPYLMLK
The assay is described as follows: cell-based or functional assay.

The next assay addresses T2, human CD80 (B7-1) (human, UniProt P33681 35-288).
T2 construct: whole, on cells
T2 sequence (looked up): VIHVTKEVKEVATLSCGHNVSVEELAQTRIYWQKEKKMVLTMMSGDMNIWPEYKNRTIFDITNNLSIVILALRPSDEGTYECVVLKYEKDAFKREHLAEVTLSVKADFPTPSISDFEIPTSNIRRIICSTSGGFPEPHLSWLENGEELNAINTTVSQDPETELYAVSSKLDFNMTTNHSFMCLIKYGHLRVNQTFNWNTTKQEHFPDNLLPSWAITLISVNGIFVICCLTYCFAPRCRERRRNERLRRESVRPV
The assay is described as follows: flow cytometry on HEK293T cells stably expressing the human protein, one concentration. Background: Flow cytometry measures light scatter and fluorescence of single cells or particles in a stream.

A further assay concerns the target T3, human PD-L1 (B7-H1) (human, UniProt Q9NZQ7 19-290).
T3 construct: whole, on cells; also called CD274
Described as above.

For a further assay, the target named is T4, human PD-L2 (B7-DC) (human, UniProt Q9BQ51 20-273).
T4 construct: whole, on cells; also called CD273
T4 sequence (looked up): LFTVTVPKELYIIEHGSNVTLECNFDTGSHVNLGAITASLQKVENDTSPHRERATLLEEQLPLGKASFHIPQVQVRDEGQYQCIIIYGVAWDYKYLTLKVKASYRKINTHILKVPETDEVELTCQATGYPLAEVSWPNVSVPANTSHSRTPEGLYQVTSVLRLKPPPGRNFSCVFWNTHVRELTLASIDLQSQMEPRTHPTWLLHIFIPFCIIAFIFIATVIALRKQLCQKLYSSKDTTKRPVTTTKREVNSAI
The assay is described as above.

The target in another assay is T5, human VISTA (B7-H5) (human, UniProt Q9H7M9 33-311).
T5 construct: whole, on cells
T5 sequence (looked up): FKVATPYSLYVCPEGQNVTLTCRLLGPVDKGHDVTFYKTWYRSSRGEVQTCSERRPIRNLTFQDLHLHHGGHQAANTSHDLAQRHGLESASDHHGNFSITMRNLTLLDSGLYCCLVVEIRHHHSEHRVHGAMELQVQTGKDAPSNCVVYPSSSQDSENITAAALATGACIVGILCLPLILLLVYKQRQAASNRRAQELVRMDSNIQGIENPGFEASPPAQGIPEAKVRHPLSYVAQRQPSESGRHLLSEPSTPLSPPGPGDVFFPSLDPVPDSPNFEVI
The description is as above.

The target in assay [2] is T1, human B7H4. The assay can be described thus: flow cytometry on human B7H4-transfected HEK293T cells, PE anti-human IgG Fc secondary antibody.

T3 sequence (Q9NZQ7 19-290): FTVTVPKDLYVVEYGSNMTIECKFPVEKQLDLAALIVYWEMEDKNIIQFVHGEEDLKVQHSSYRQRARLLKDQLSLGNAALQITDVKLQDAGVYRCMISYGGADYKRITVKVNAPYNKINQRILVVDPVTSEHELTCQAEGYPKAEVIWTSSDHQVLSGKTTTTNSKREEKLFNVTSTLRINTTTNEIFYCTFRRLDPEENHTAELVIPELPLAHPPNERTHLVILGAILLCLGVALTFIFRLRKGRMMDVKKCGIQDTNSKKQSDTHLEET

B1: antibody-drug conjugate DB1001-X2 (antibody, DAR 5.4, V domains shown)
VH: QVQLVESGGGVVQPGRSLRLSCAASGFTFRSFGMHWVRQAPGKGLEWVAVISYDASNEYYADSVKGRFIISRDNSKDTLYLQMNSLRAGDTAVYYCAKGGALRWYFAYWGQGTLVTVSS
VL: EIVMTQSPATLSVSPGERATLSCRASQSISSNLGWYQQKPGQAPRLLIYGASTRATGIPARFSGSGSGTEFTLTISSLQSEDFAVYYCQQYRSWPPLTFGGGTKVEIKR
modifications: linker-cytotoxin X2 (payload P-III-30) coupled after TCEP reduction of the antibody; drug-to-antibody ratio (DAR) of 5.4; conjugation residues not stated
notes: also called anti-B7H4 ADC DB1001-X2
The EC50 is the concentration at which the effect is half-maximal. In the case of B1, the “IC50 (nM), in vitro proliferation inhibition of MDA-MB-468 cells (CTG, 7 days)” value in the assay with human B7H4 [1] stood at 50.7 nM. The binding result in the assay with human CD80 (B7-1), in the assay with human PD-L1 (B7-H1), in the assay with human PD-L2 (B7-DC) and with human VISTA (B7-H5) was “no binding (tested: 100 nM or 300 nM)” throughout. Moreover, the midpoint of the response in the assay with human B7H4 [2], the EC50, lay at 2.18 nM.

The record behind these values is US20250032630A1, “B7H4 ANTIBODY-DRUG CONJUGATE AND USE THEREOF” (Duality Biologics (Suzhou) Co., Ltd., priority 2022, published 2025).
